Results on 50 sequences are retold here after the supplement of paper PMC9112550, “Optimization of the antimicrobial peptide Bac7 by deep mutational scanning” (BMC Biology, 2022).

This data set has as its system Escherichia coli TOP10. Nature of the data set: shrunken log2 fold change of peptide-encoding DNA abundance (4.5 h post-induction vs induction); higher = less antimicrobial activity (less host growth inhibition). Particulars: time post-induction: 4.5 h; library: site-saturation at positions 5, 18, 19, 20.
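Note: peptides expressed intracellularly from a pBAD plasmid library in pooled LB shake-flask culture, induced with 0.3% L-arabinose, DNA abundance read by NGS, three biological replicates, DESeq2 with apeglm shrinkage.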

Regarding RRIRKRPPRLPRPRPRPSWFPRP, the “shrunken log2 fold change” value is -0.168.

As to RRIRVRPPRLPRPRPRPKWFPRP, the “shrunken log2 fold change” value is -0.0567. Next, RRIRLRPPRLPRPRPRPYINPRP: -0.584; RRIRCRPPRLPRPRPRPCEVPRP: -0.251; RRIRKRPPRLPRPRPRPCYAPRP: 0.083. Next, RRIRDRPPRLPRPRPRPWCSPRP: -0.348; RRIRVRPPRLPRPRPRPTDHPRP: 0.00915. Next, RRIRLRPPRLPRPRPRPVWFPRP: 0.00279. In the case of RRIRCRPPRLPRPRPRPCQWPRP, the “shrunken log2 fold change” value is -0.00783. As to RRIRMRPPRLPRPRPRPTAEPRP, the “shrunken log2 fold change” value was 2.75. Take RRIRFRPPRLPRPRPRPNKAPRP: the “shrunken log2 fold change” value was -0.268. Consider RRIRSRPPRLPRPRPRPHAGPRP, for which the “shrunken log2 fold change” value was determined as 0.428.

For the sequence RRIRHRPPRLPRPRPRPFCKPRP, the “shrunken log2 fold change” value is -0.571. Under RRIRKRPPRLPRPRPRPWNFPRP stands -0.162; under RRIRYRPPRLPRPRPRPMSMPRP, -0.304; under RRIRHRPPRLPRPRPRPKGTPRP, -0.0951.

RRIRWRPPRLPRPRPRPIIRPRP: the “shrunken log2 fold change” value was -0.00231. For RRIRKRPPRLPRPRPRPGKRPRP, the “shrunken log2 fold change” value was found to be 0.285. Under RRIRSRPPRLPRPRPRPFLIPRP stands -0.383. With RRIRGRPPRLPRPRPRPDHKPRP, the “shrunken log2 fold change” value was -0.154.

As to RRIRERPPRLPRPRPRPCDAPRP, the “shrunken log2 fold change” value is -0.171. Under RRIRERPPRLPRPRPRPQRDPRP stands 0.0296; under RRIRARPPRLPRPRPRPIDNPRP, -0.0987.

For RRIRRRPPRLPRPRPRPFKEPRP, the “shrunken log2 fold change” value came out at 0.00168. For the sequence RRIRSRPPRLPRPRPRPAYCPRP, the “shrunken log2 fold change” value is 0.149.

For RRIRGRPPRLPRPRPRPPTCPRP, the “shrunken log2 fold change” value was 0.172. As to RRIRDRPPRLPRPRPRPALEPRP, the “shrunken log2 fold change” value came to 0.659. Under RRIRYRPPRLPRPRPRPIPHPRP stands 0.046. In the case of RRIRARPPRLPRPRPRPMGEPRP, the “shrunken log2 fold change” value amounted to 0.1. With RRIRVRPPRLPRPRPRPNLDPRP, the “shrunken log2 fold change” value is -0.0165. For RRIRIRPPRLPRPRPRPKFMPRP, the “shrunken log2 fold change” value is -0.321.

With RRIRCRPPRLPRPRPRPPGHPRP, the “shrunken log2 fold change” value was determined as 0.422.

Turning to RRIRKRPPRLPRPRPRPHYTPRP, the “shrunken log2 fold change” value is -0.395. Next, RRIRQRPPRLPRPRPRPAKKPRP: -0.0522. As for RRIRNRPPRLPRPRPRPKCDPRP, the “shrunken log2 fold change” value was -0.471.

In the case of RRIRYRPPRLPRPRPRPEVHPRP, the “shrunken log2 fold change” value was -0.187. Next, RRIRDRPPRLPRPRPRPKEHPRP: 0.0267; RRIRQRPPRLPRPRPRPCHNPRP: -0.0554. In the case of RRIRCRPPRLPRPRPRPSWRPRP, the “shrunken log2 fold change” value is -0.0716.

In the case of RRIRWRPPRLPRPRPRPPLNPRP, the “shrunken log2 fold change” value was 0.188. Under RRIRRRPPRLPRPRPRPKETPRP stands 0.17; under RRIRRRPPRLPRPRPRPCHHPRP, -0.0387.

Regarding RRIRFRPPRLPRPRPRPQRRPRP, the “shrunken log2 fold change” value is -0.177. Under RRIRDRPPRLPRPRPRPKIQPRP stands 0.0161; under RRIRERPPRLPRPRPRPRYKPRP, -0.0357; under RRIRVRPPRLPRPRPRPLVGPRP, 0.726. Next, RRIRGRPPRLPRPRPRPDEFPRP: 0.561; RRIRGRPPRLPRPRPRPYALPRP: 0.0375. Under RRIRTRPPRLPRPRPRPFKQPRP stands 0.0538; under RRIRFRPPRLPRPRPRPLCKPRP, 0.0214.
